{"source": "patent US20210032299A1", "about": "(Eli Lilly, published 2021)", "binders": {"B1": {"name": "Example 11 (peptide)", "peptide": "Y[dA]EGTFISDYSILLDKK([AEEA-AEEA-γGlu-C20 diacid])AQQDFVNWLLAQGPSSGAPPPS-NH2", "modifications": "N-terminus assumed", "SMILES": "CC[C@H](C)[C@H](NC(=O)[C@H](CO)NC(=O)[C@H](Cc1ccc(O)cc1)NC(=O)[C@H](CC(=O)O)NC(=O)[C@H](CO)NC(=O)[C@@H](NC(=O)[C@H](Cc1ccccc1)NC(=O)[C@@H](NC(=O)CNC(=O)[C@H](CCC(=O)O)NC(=O)[C@@H](C)NC(=O)[C@@H](N)Cc1ccc(O)cc1)[C@@H](C)O)[C@@H](C)CC)C(=O)N[C@@H](CC(C)C)C(=O)N[C@@H](CC(C)C)C(=O)N[C@@H](CC(=O)O)C(=O)N[C@@H](CCCCN)C(=O)N[C@@H](CCCCNC(=O)COCCOCCNC(=O)COCCOCCNC(=O)CC[C@H](NC(=O)CCCCCCCCCCCCCCCCCCC(=O)O)C(=O)O)C(=O)N[C@@H](C)C(=O)N[C@@H](CCC(N)=O)C(=O)N[C@@H](CCC(N)=O)C(=O)N[C@@H](CC(=O)O)C(=O)N[C@@H](Cc1ccccc1)C(=O)N[C@H](C(=O)N[C@@H](CC(N)=O)C(=O)N[C@@H](Cc1c[nH]c2ccccc12)C(=O)N[C@@H](CC(C)C)C(=O)N[C@@H](CC(C)C)C(=O)N[C@@H](C)C(=O)N[C@@H](CCC(N)=O)C(=O)NCC(=O)N1CCC[C@H]1C(=O)N[C@@H](CO)C(=O)N[C@@H](CO)C(=O)NCC(=O)N[C@@H](C)C(=O)N1CCC[C@H]1C(=O)N1CCC[C@H]1C(=O)N1CCC[C@H]1C(=O)N[C@@H](CO)C(N)=O)C(C)C"}, "B2": {"name": "Example 89 (peptide)", "peptide": "Y[Aib]EGTLISDYSI[αMeL]LDKK([AEEA-AEEA-γGlu-C20 diacid])HQ[Aib]DFVE[4Pal]LLEAGPSSGAPPPS-NH2", "modifications": "N-terminus assumed", "SMILES": "CC[C@H](C)[C@H](NC(=O)[C@H](CC(C)C)NC(=O)[C@@H](NC(=O)CNC(=O)[C@H](CCC(=O)O)NC(=O)C(C)(C)NC(=O)[C@@H](N)Cc1ccc(O)cc1)[C@@H](C)O)C(=O)N[C@@H](CO)C(=O)N[C@@H](CC(=O)O)C(=O)N[C@@H](Cc1ccc(O)cc1)C(=O)N[C@@H](CO)C(=O)N[C@H](C(=O)N[C@@](C)(CC(C)C)C(=O)N[C@@H](CC(C)C)C(=O)N[C@@H](CC(=O)O)C(=O)N[C@@H](CCCCN)C(=O)N[C@@H](CCCCNC(=O)COCCOCCNC(=O)COCCOCCNC(=O)CC[C@H](NC(=O)CCCCCCCCCCCCCCCCCCC(=O)O)C(=O)O)C(=O)N[C@@H](Cc1c[nH]cn1)C(=O)N[C@@H](CCC(N)=O)C(=O)NC(C)(C)C(=O)N[C@@H](CC(=O)O)C(=O)N[C@@H](Cc1ccccc1)C(=O)N[C@H](C(=O)N[C@@H](CCC(=O)O)C(=O)N[C@@H](Cc1ccncc1)C(=O)N[C@@H](CC(C)C)C(=O)N[C@@H](CC(C)C)C(=O)N[C@@H](CCC(=O)O)C(=O)N[C@@H](C)C(=O)NCC(=O)N1CCC[C@H]1C(=O)N[C@@H](CO)C(=O)N[C@@H](CO)C(=O)NCC(=O)N[C@@H](C)C(=O)N1CCC[C@H]1C(=O)N1CCC[C@H]1C(=O)N1CCC[C@H]1C(=O)N[C@@H](CO)C(N)=O)C(C)C)[C@@H](C)CC"}, "B3": {"name": "Example 90 (peptide)", "peptide": "Y[Aib]EGTFISDYSI[αMeL]LDKK([AEEA-AEEA-γGlu-C20 diacid])HQ[Aib]DFVE[αMeY]LLEAGPSSGAPPPS-NH2", "modifications": "N-terminus assumed", "SMILES": "CC[C@H](C)[C@H](NC(=O)[C@H](Cc1ccccc1)NC(=O)[C@@H](NC(=O)CNC(=O)[C@H](CCC(=O)O)NC(=O)C(C)(C)NC(=O)[C@@H](N)Cc1ccc(O)cc1)[C@@H](C)O)C(=O)N[C@@H](CO)C(=O)N[C@@H](CC(=O)O)C(=O)N[C@@H](Cc1ccc(O)cc1)C(=O)N[C@@H](CO)C(=O)N[C@H](C(=O)N[C@@](C)(CC(C)C)C(=O)N[C@@H](CC(C)C)C(=O)N[C@@H](CC(=O)O)C(=O)N[C@@H](CCCCN)C(=O)N[C@@H](CCCCNC(=O)COCCOCCNC(=O)COCCOCCNC(=O)CC[C@H](NC(=O)CCCCCCCCCCCCCCCCCCC(=O)O)C(=O)O)C(=O)N[C@@H](Cc1c[nH]cn1)C(=O)N[C@@H](CCC(N)=O)C(=O)NC(C)(C)C(=O)N[C@@H](CC(=O)O)C(=O)N[C@@H](Cc1ccccc1)C(=O)N[C@H](C(=O)N[C@@H](CCC(=O)O)C(=O)N[C@@](C)(Cc1ccc(O)cc1)C(=O)N[C@@H](CC(C)C)C(=O)N[C@@H](CC(C)C)C(=O)N[C@@H](CCC(=O)O)C(=O)N[C@@H](C)C(=O)NCC(=O)N1CCC[C@H]1C(=O)N[C@@H](CO)C(=O)N[C@@H](CO)C(=O)NCC(=O)N[C@@H](C)C(=O)N1CCC[C@H]1C(=O)N1CCC[C@H]1C(=O)N1CCC[C@H]1C(=O)N[C@@H](CO)C(N)=O)C(C)C)[C@@H](C)CC"}, "B4": {"name": "Example 91 (peptide)", "peptide": "Y[Aib]EGTFISDYSI[αMeL]LDKK([AEEA-AEEA-γGlu-C20 diacid])HQ[Aib]DFVE[αMeY]LLEGGPSSGAPPPS-NH2", "modifications": "N-terminus assumed", "SMILES": "CC[C@H](C)[C@H](NC(=O)[C@H](Cc1ccccc1)NC(=O)[C@@H](NC(=O)CNC(=O)[C@H](CCC(=O)O)NC(=O)C(C)(C)NC(=O)[C@@H](N)Cc1ccc(O)cc1)[C@@H](C)O)C(=O)N[C@@H](CO)C(=O)N[C@@H](CC(=O)O)C(=O)N[C@@H](Cc1ccc(O)cc1)C(=O)N[C@@H](CO)C(=O)N[C@H](C(=O)N[C@@](C)(CC(C)C)C(=O)N[C@@H](CC(C)C)C(=O)N[C@@H](CC(=O)O)C(=O)N[C@@H](CCCCN)C(=O)N[C@@H](CCCCNC(=O)COCCOCCNC(=O)COCCOCCNC(=O)CC[C@H](NC(=O)CCCCCCCCCCCCCCCCCCC(=O)O)C(=O)O)C(=O)N[C@@H](Cc1c[nH]cn1)C(=O)N[C@@H](CCC(N)=O)C(=O)NC(C)(C)C(=O)N[C@@H](CC(=O)O)C(=O)N[C@@H](Cc1ccccc1)C(=O)N[C@H](C(=O)N[C@@H](CCC(=O)O)C(=O)N[C@@](C)(Cc1ccc(O)cc1)C(=O)N[C@@H](CC(C)C)C(=O)N[C@@H](CC(C)C)C(=O)N[C@@H](CCC(=O)O)C(=O)NCC(=O)NCC(=O)N1CCC[C@H]1C(=O)N[C@@H](CO)C(=O)N[C@@H](CO)C(=O)NCC(=O)N[C@@H](C)C(=O)N1CCC[C@H]1C(=O)N1CCC[C@H]1C(=O)N1CCC[C@H]1C(=O)N[C@@H](CO)C(N)=O)C(C)C)[C@@H](C)CC"}, "B5": {"name": "Example 8 (peptide)", "peptide": "Y[Aib]EGTFISDYSILLDKK([AEEA-AEEA-γGlu-C20 diacid])AQ[Aib]DFVNWLLAQGPSSGAPPPS-NH2", "modifications": "N-terminus assumed", "SMILES": "CC[C@H](C)[C@H](NC(=O)[C@H](CO)NC(=O)[C@H](Cc1ccc(O)cc1)NC(=O)[C@H](CC(=O)O)NC(=O)[C@H](CO)NC(=O)[C@@H](NC(=O)[C@H](Cc1ccccc1)NC(=O)[C@@H](NC(=O)CNC(=O)[C@H](CCC(=O)O)NC(=O)C(C)(C)NC(=O)[C@@H](N)Cc1ccc(O)cc1)[C@@H](C)O)[C@@H](C)CC)C(=O)N[C@@H](CC(C)C)C(=O)N[C@@H](CC(C)C)C(=O)N[C@@H](CC(=O)O)C(=O)N[C@@H](CCCCN)C(=O)N[C@@H](CCCCNC(=O)COCCOCCNC(=O)COCCOCCNC(=O)CC[C@H](NC(=O)CCCCCCCCCCCCCCCCCCC(=O)O)C(=O)O)C(=O)N[C@@H](C)C(=O)N[C@@H](CCC(N)=O)C(=O)NC(C)(C)C(=O)N[C@@H](CC(=O)O)C(=O)N[C@@H](Cc1ccccc1)C(=O)N[C@H](C(=O)N[C@@H](CC(N)=O)C(=O)N[C@@H](Cc1c[nH]c2ccccc12)C(=O)N[C@@H](CC(C)C)C(=O)N[C@@H](CC(C)C)C(=O)N[C@@H](C)C(=O)N[C@@H](CCC(N)=O)C(=O)NCC(=O)N1CCC[C@H]1C(=O)N[C@@H](CO)C(=O)N[C@@H](CO)C(=O)NCC(=O)N[C@@H](C)C(=O)N1CCC[C@H]1C(=O)N1CCC[C@H]1C(=O)N1CCC[C@H]1C(=O)N[C@@H](CO)C(N)=O)C(C)C"}}, "note": "Starred links: 1 amine or outer side, 2 acyl side, 3 side chain; linkers in the order of their positions; H or OH if unused. Non-standard residues stand in square brackets, D forms with d. Groups on a side chain read outwards from the residue. No end group written: not given here. *: point of attachment. C20 diacid = O=C(O)CCCCCCCCCCCCCCCCCCC(=O)*; γGlu = O=C(O)[C@H](CCC(=O)[*:2])N[*:1]; αMeY = C[C@](N)(Cc1ccc(O)cc1)C(=O)O; 4Pal = N[C@@H](Cc1ccncc1)C(=O)O; αMeL = CC(C)C[C@](C)(N)C(=O)O; AEEA = NCCOCCOCC(=O)O; Aib = CC(C)(N)C(=O)O", "data": [{"target": "T1, human glucagon receptor (human, UniProt P47871 26-477)", "T1 construct": "whole, on cells; Assayed as crude membranes of stably transfected HEK293 cells; also called hGcgR; GcgR", "T1 sequence (P47871 26-477)": "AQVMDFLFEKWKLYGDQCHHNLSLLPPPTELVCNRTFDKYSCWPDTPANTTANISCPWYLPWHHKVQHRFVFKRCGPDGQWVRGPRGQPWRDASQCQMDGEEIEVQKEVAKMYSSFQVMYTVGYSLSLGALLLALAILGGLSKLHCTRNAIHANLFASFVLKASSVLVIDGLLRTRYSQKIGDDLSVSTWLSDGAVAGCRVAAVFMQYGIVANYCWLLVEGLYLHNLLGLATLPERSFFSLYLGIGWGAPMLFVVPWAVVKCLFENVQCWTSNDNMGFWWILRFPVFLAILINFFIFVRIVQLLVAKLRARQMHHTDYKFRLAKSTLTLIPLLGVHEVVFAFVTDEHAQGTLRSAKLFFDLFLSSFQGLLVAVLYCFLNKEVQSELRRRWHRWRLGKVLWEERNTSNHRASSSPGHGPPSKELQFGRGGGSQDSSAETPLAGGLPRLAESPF", "test": "SPA, displacement of [125I]-Gcg from hGcgR membranes, 0.1% bacitracin", "procedure,_shortened": "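Binding buffer: 25 mM HEPES pH 7.4, 2.5 mM CaCl₂, 1 mM MgCl₂, 0.003% Tween-20, protease inhibitors without EDTA. Counted by scintillation after 12 h incubation/settling at room temperature. Four-parameter nonlinear fit; Kᵢ given as geometric mean ± SEM of independent replicates run on different days.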", "units": {"Ki": "nM"}, "values": [{"binder": "B1", "Ki": 163}, {"binder": "B2", "Ki": 611}, {"binder": "B3", "Ki": 112}, {"binder": "B4", "Ki": 54.4}, {"binder": "B5", "Ki": 101}]}, {"target": "T2, human glucose-dependent insulinotropic polypeptide (GIP) receptor (human, UniProt P48546 22-466)", "T2 construct": "whole, on cells; Assayed as crude membranes of stably transfected CHO cells; also called hGIPR; human GIP receptor", "T2 sequence (looked up)": "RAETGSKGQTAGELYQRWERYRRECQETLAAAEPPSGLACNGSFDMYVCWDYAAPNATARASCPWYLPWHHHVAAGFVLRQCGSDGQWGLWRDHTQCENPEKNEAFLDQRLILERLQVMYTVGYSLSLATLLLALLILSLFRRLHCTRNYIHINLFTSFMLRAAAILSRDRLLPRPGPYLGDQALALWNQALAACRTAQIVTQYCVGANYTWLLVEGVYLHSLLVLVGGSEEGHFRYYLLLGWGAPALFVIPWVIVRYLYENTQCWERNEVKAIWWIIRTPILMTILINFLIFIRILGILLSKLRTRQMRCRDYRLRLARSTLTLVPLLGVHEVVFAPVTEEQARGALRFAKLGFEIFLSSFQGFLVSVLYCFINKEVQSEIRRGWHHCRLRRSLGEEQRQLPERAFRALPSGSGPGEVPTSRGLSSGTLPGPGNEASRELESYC", "test": "SPA, displacement of [125I]-GIP from hGIPR membranes, 0.1% bacitracin", "units": {"Ki": "nM"}, "values": [{"binder": "B1", "Ki": 0.0584}, {"binder": "B2", "Ki": 0.072}, {"binder": "B3", "Ki": 0.129}, {"binder": "B4", "Ki": 0.122}, {"binder": "B5", "Ki": 0.027}]}, {"target": "T3, human GLP-1 receptor (human, UniProt P43220 24-463)", "T3 construct": "whole, on cells; Assayed as crude membranes of stably transfected HEK293 cells; also called hGLP1R; hGLP-1R", "test": "SPA, displacement of [125I]-GLP-1 from hGLP-1R membranes, 0.1% bacitracin", "procedure,_shortened": "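Binding buffer: 25 mM HEPES pH 7.4, 2.5 mM CaCl₂, 1 mM MgCl₂, 0.1% bacitracin, 0.003% Tween-20, protease inhibitors without EDTA. Four-parameter nonlinear regression; Kᵢ given as geometric mean ± SEM, n = independent replicates run on different days.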", "units": {"Ki": "nM"}, "values": [{"binder": "B1", "Ki": 85.9}, {"binder": "B2", "Ki": 294}, {"binder": "B3", "Ki": 102}, {"binder": "B4", "Ki": 37.4}, {"binder": "B5", "Ki": 38.1}]}]}
